Data on two molecules can be found in patent US20210130473A1, “TGFßR1 INHIBITOR-ASGR ANTIBODY CONJUGATES AND USES THEREOF” (Silverback Therapeutics, Inc., priority 2019, published 2021).

For test [1], the target named is T1, rat ASGR1 on CHO-S cells (rat) (UniProt P02706).
T1 sequence (looked up): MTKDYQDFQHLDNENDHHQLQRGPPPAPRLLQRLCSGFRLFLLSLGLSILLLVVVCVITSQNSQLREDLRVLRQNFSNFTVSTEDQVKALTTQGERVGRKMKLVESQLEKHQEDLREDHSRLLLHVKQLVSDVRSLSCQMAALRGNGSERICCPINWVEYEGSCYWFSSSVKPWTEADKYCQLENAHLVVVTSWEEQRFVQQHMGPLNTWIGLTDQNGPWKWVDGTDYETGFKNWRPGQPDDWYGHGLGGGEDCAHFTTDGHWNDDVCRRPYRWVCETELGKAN
In words: Guava flow cytometry on CHO-S cells expressing rat ASGR1. On the technique in general: Flow cytometry measures light scatter and fluorescence of single cells or particles in a stream.

The target of test [2] is Cynomolgus macaque ASGR1 on CHO-S cells (Cynomolgus macaque). Briefly: Guava flow cytometry on CHO-S cells expressing cynomolgus ASGR1 (repeat of Table 15).
Test [3] has as its target T1, rat ASGR1 on CHO-S cells (rat). In words: Guava flow cytometry on CHO-S cells expressing rat ASGR1 (repeat of Table 16).
The target in test [4] is Cynomolgus macaque ASGR1 on CHO-S cells (Cynomolgus macaque). Briefly: Guava flow cytometry on CHO-S cells expressing cynomolgus ASGR1.
Test [5] deals with human ASGR1 (asialoglycoprotein receptor 1) on cells (human) (UniProt P07306). In words: flow cytometry on HepG2 cells, anti-human IgG PE secondary, MFI (Geo Mean).
For test [6] the target is unchanged. The test is described as above. The source holds these as a separate data set.

For orientation: EC50 means the concentration that produces a half-maximal response. Lower therefore signals an effect from little substance. A word on the EC50 (read off the curve): it is the concentration at which the effect is half-maximal.

Like-named read-outs stand apart in the source and are kept apart here.

human ASGR1 (asialoglycoprotein receptor 1) on cells (human), sequence (P07306 whole entry): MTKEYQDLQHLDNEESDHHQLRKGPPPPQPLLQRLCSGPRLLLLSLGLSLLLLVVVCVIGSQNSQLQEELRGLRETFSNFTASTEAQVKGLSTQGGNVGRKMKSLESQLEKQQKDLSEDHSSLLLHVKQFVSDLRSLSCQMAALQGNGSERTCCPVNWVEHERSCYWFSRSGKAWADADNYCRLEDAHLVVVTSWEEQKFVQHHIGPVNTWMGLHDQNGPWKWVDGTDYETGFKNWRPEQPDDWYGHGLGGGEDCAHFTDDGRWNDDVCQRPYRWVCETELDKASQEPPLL

B1: ASGR1 mAb-A (antibody, from another filing, V domains shown)
VH: QVQLVQSGTEVKKPGASVKVSCKASGYTFTNYDINWVRQATGQGLEWMGWMHPNSGNTGYAQKFQGRVTLTRNTSISTAYMELSSLRSEDTAVYYCASSSGWYYFDYWGQGTLVTVSS
VL: DIVMTQSPDSLAVSLGERATINCKSSQSILHSSNNNNYLAWFQQKPGQPPKLLLYWASTRESGVPDRFSGSGSGTDFTLTISSLQPEDVAVYYCQQYYNTPVTFGPGTKVGIK
With B1, the half-maximal effective concentration (EC50) in test [1] stood at 3.22 nM; in test [2], 1.07 nM; in test [3], 3.22 nM; in test [4], 1.07 nM. For the same molecule, the concentration for a half-maximal effect (EC50 (read off the curve)) in test [5] was determined as 0.6 µg/mL; in test [6], 0.5 µg/mL.

B2: ASGR1 mAb-B (antibody, from another filing, V domains shown)
VH: EVQLVESGGGLVKPGGSLRLSCAASGFTFSSYSMNWVRQAPGKGLEWVSSISGSSSYIYYADSVKGRFTISRDNAKNSLYLQMNSLRAEDTAVYFCARGGSRGFDPWGQGTLVTVSS
VL: DIQMTQSPSSLSASVGDRVTITCRASQSITSYLNWYQQKPGKAPKLLIYTASSLQSGVPSRFSGSGSGTDFTLTISSLQPEDFATYYCQQSHSFPFTFGPGTKVDIK
On to B2, for which the EC50 in test [1] worked out at 0.38 nM; in test [2], 0.36 nM; in test [3], 0.38 nM; in test [4] it was 0.36 nM. Further, the EC50 (read off the curve) in test [6] is 0.2 µg/mL.
